Measurements as given in US20250092426, “CAS ENDONUCLEASES AND RELATED METHODS” (Flagship Pioneering Innovations VII, LLC, published 2025).

Target: T1, CasEnd-10 (synthetic construct)
T1 chain: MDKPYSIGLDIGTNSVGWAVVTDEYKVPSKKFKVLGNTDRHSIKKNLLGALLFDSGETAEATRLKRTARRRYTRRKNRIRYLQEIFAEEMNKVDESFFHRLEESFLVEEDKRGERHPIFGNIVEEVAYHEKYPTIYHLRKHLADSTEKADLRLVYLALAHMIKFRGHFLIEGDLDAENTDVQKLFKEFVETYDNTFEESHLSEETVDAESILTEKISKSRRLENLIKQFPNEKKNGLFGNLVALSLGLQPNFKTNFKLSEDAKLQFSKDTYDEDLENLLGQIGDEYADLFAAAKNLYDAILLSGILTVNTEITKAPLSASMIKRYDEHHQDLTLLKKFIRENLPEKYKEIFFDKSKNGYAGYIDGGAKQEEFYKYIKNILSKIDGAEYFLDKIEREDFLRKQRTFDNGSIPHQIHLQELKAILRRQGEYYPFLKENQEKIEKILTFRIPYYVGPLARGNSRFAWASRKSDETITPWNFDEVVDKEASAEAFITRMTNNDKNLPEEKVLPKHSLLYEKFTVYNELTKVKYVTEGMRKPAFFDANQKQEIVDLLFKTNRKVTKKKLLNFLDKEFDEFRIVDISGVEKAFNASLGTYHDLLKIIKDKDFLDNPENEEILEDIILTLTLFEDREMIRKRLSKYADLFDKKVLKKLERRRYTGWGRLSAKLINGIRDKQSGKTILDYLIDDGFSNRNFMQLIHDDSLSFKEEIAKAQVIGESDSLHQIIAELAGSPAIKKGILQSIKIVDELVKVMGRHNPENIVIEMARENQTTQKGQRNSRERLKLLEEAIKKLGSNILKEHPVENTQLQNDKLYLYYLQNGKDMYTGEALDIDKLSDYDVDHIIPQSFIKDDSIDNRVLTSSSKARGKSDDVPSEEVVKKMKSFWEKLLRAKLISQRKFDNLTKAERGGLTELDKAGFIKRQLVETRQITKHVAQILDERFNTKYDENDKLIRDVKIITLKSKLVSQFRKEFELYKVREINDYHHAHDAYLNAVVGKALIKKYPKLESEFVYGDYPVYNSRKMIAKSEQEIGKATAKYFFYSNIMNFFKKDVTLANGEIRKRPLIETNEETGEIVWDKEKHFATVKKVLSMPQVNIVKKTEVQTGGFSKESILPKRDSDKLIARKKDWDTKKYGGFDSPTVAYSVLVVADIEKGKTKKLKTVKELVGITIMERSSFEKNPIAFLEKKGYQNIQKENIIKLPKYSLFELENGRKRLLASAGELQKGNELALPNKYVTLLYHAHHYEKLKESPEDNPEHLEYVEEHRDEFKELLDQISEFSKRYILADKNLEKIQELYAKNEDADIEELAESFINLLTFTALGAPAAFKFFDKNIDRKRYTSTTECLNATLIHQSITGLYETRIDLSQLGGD
Assay: cell_activity; +++; K562, second nick guide SEQ 380; PAM not stated
In short: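 K562 cells (250,000) nucleofected with plasmids for the reverse transcriptase–Cas endonuclease fusion, template RNA introducing an SNP at endogenous HBB, and second nick guide RNA (250 ng each). Genomic DNA harvested at day 3; percent amplicons with intended edit measured by targeted amplicon sequencing.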

B1: HBB template RNA ; HBB protospacer (ssRNA ; dsDNA)
RNA: CAUGGUGCACCUGACUCCUGGUUUUAGAGCUAGAAAUAGCAAGUUAAAAUAAGGCUAGUCCGUUAUCAACUUGAAAAAGUGGCACCGAGUCGGUGCACGGCAGACUUCUCUGCCGGAGUCAGGUGC
DNA 1: CATGGTGCACCTGACTCCTG
DNA 2: CAGGAGTCAGGTGCACCATG
Which activity does the source give for B1 here?
Its activity is ≥ 100 % of reference.
